In PMC3257569 (The Journal of Cell Biology, 2011):

B1: recombinant Pil1 (natural protein, S. cerevisiae, UniProt P53252 1-339, looked up)
chain: MHRTYSLRNSRAPTASQLQNPPPPPSTTKGRFFGKGGLAYSFRRSAAGAFGPELSRKLSQLVKIEKNVLRSMELTANERRDAAKQLSIWGLENDDDVSDITDKLGVLIYEVSELDDQFIDRYDQYRLTLKSIRDIEGSVQPSRDRKDKITDKIAYLKYKDPQSPKIEVLEQELVRAEAESLVAEAQLSNITRSKLRAAFNYQFDSIIEHSEKIALIAGYGKALLELLDDSPVTPGETRPAYDGYEASKQIIIDAESALNEWTLDSAQVKPTLSFKQDYEDFEPEEGEEEEEEDGQGRWSEDEQEDGQIEEPEQEEEGAVEEHEQVGHQQSESLPQQTTA
B2: recombinant pil1(4D) (natural protein, S. cerevisiae, UniProt P53252 1-339, looked up)
chain: MHRTYSLRNSRAPTASQLQNPPPPPSTTKGRFFGKGGLAYSFRRDAAGAFGPELSRKLDQLVKIEKNVLRSMELTANERRDAAKQLSIWGLENDDDVSDITDKLGVLIYEVSELDDQFIDRYDQYRLTLKSIRDIEGSVQPSRDRKDKITDKIAYLKYKDPQSPKIEVLEQELVRAEAESLVAEAQLSNITRSKLRAAFNYQFDSIIEHSEKIALIAGYGKALLELLDDDPVDPGETRPAYDGYEASKQIIIDAESALNEWTLDSAQVKPTLSFKQDYEDFEPEEGEEEEEEDGQGRWSEDEQEDGQIEEPEQEEEGAVEEHEQVGHQQSESLPQQTTA
B3: pil1ΔN (domain or fragment, S. cerevisiae, UniProt P53252 36-339, looked up)
chain: GGLAYSFRRSAAGAFGPELSRKLSQLVKIEKNVLRSMELTANERRDAAKQLSIWGLENDDDVSDITDKLGVLIYEVSELDDQFIDRYDQYRLTLKSIRDIEGSVQPSRDRKDKITDKIAYLKYKDPQSPKIEVLEQELVRAEAESLVAEAQLSNITRSKLRAAFNYQFDSIIEHSEKIALIAGYGKALLELLDDSPVTPGETRPAYDGYEASKQIIIDAESALNEWTLDSAQVKPTLSFKQDYEDFEPEEGEEEEEEDGQGRWSEDEQEDGQIEEPEQEEEGAVEEHEQVGHQQSESLPQQTTA
B4: lsp1ΔN (domain or fragment, S. cerevisiae, UniProt Q12230 36-341, looked up)
chain: ASIASSFRKNAAGNFGPELARKLSQLVKTEKGVLRAMEVVASERREAAKQLSLWGADNDDDVSDVTDKLGVLIYELGELQDQFIDKYDQYRVTLKSIRNIEASVQPSRDRKEKITDEIAHLKYKDPQSTKIPVLEQELVRAEAESLVAEAQLSNITREKLKAAYSYMFDSLRELSEKFALIAGYGKALLELLDDSPVTPGEARPAYDGYEASRQIIMDAESALESWTLDMAAVKPTLSFHQTVDDVYEDEDGEEEEEPEIQNGDIPGQVVEEEEVEWTTEVPVDDEAHEADHHVSQNGHTSGSENI
B5: recombinant Lsp1 (natural protein, S. cerevisiae, UniProt Q12230 1-341, looked up)
chain: MHRTYSLRNQRAPTAAELQAPPPPPSSTKSKFFGKASIASSFRKNAAGNFGPELARKLSQLVKTEKGVLRAMEVVASERREAAKQLSLWGADNDDDVSDVTDKLGVLIYELGELQDQFIDKYDQYRVTLKSIRNIEASVQPSRDRKEKITDEIAHLKYKDPQSTKIPVLEQELVRAEAESLVAEAQLSNITREKLKAAYSYMFDSLRELSEKFALIAGYGKALLELLDDSPVTPGEARPAYDGYEASRQIIMDAESALESWTLDMAAVKPTLSFHQTVDDVYEDEDGEEEEEPEIQNGDIPGQVVEEEEVEWTTEVPVDDEAHEADHHVSQNGHTSGSENI

Experiments:
[1] = target: the molecule itself; experiment: velocity sedimentation in a sucrose gradient
negative staining and EM = target: the molecule itself; experiment: negative staining and EM

Protein	binding result [1]	binding result (negative staining and EM)
B1	binds	–
B2	–	binds
B3	–	binds
B4	–	binds
B5	binds	–
